{
  "source": "paper doi:10.1101/2025.05.26.656073",
  "about": "(bioRxiv, 2025)",
  "binders": {"B1": {"name": "Orange Carotenoid Protein, dark-adapted state (OCP^O), wild type, canthaxanthin-binding holo form, P74102 1-316 (natural protein)", "chain": "MPFTIDSARGIFPNTLAADVVPATIARFSQLNAEDQLALIWFAYLEMGKTLTIAAPGAASMQLAENALKEIQAMGPLQQTQAMCDLANRADTPLCRTYASWSPNIKLGFWYRLGELMEQGFVAPIPAGYQLSANANAVLATIQGLESGQQITVLRNAVVDMGFTAGKDGKRIAEPVVPPQDTASRTKVSIEGVTNATVLNYMDNLNANDFDTLIELFTSDGALQPPFQRPIVGKENVLRFFREECQNLKLIPERGVTEPAEDGFTQIKVTGKVQTPWFGGNVGMNIAWRFLLNPEGKIFFVAIDLLASPKELLNFA"}, "B2": {"name": "apo-OCP (carotenoid-free Orange Carotenoid Protein), P74102 1-317 (natural protein)", "chain": "MPFTIDSARGIFPNTLAADVVPATIARFSQLNAEDQLALIWFAYLEMGKTLTIAAPGAASMQLAENALKEIQAMGPLQQTQAMCDLANRADTPLCRTYASWSPNIKLGFWYRLGELMEQGFVAPIPAGYQLSANANAVLATIQGLESGQQITVLRNAVVDMGFTAGKDGKRIAEPVVPPQDTASRTKVSIEGVTNATVLNYMDNLNANDFDTLIELFTSDGALQPPFQRPIVGKENVLRFFREECQNLKLIPERGVTEPAEDGFTQIKVTGKVQTPWFGGNVGMNIAWRFLLNPEGKIFFVAIDLLASPKELLNFAR"}, "B3": {"name": "Orange Carotenoid Protein, light-adapted state (OCP^R), wild type, canthaxanthin-binding holo form, P74102 1-317 (natural protein)", "chain": "B2 chain"}, "B4": {"name": "OCP(R27L) mutant, light-adapted state (natural protein)", "chain": "B2 chain with R27L"}},
  "key": {"[1]": {"biological_target": "T1, Orange Carotenoid Protein, dark-adapted state (OCP^O), wild type, canthaxanthin-binding holo form (Synechocystis sp. PCC 6803), P74102", "T1 chain": "B1 chain", "test": "SEC", "settings": "remark: other sources report otherwise"}, "[2]": {"biological_target": "T1, Orange Carotenoid Protein, dark-adapted …", "test": "SAXS", "settings": "remark: other sources report otherwise"}, "[3]": {"biological_target": "T1, Orange Carotenoid Protein, dark-adapted …", "test": "transient grating spectroscopy", "settings": "remark: other sources report otherwise"}, "[4]": {"biological_target": "T2, apo-OCP (carotenoid-free Orange Carotenoid Protein) (Synechocystis sp. PCC 6803), P74102", "T2 chain": "B2 chain", "test": "SEC", "settings": "remark: other sources report otherwise"}, "[5]": {"biological_target": "T2, apo-OCP (carotenoid-free Orange …)", "test": "SAXS", "settings": "remark: other sources report otherwise"}, "[6]": {"biological_target": "T3, Orange Carotenoid Protein, light-adapted state (OCP^R), wild type, canthaxanthin-binding holo form (Synechocystis sp. PCC 6803), P74102", "T3 chain": "B2 chain", "test": "SEC", "settings": "remark: other sources report otherwise"}, "[7]": {"biological_target": "T3, Orange Carotenoid Protein, …", "test": "SAXS", "settings": "remark: other sources report otherwise"}, "[8]": {"biological_target": "the molecule itself", "test": "SEC"}},
  "note": "Residue numbers refer to the chain shown, from its start. In names and notes the source's numbering stands.",
  "data": [
    {"binder": "B1", "values": [
      {"measurement": "Kd", "setting": "[1]", "result": 10, "unit": "µM"},
      {"measurement": "stoichiometry N", "setting": "[1]", "result": 2},
      {"measurement": "stoichiometry N", "setting": "[2]", "result": 2},
      {"measurement": "fitted dimer fraction (100 µM)", "setting": "[3]", "result": 0.6},
      {"measurement": "k1d (rate constant of the photo-induced dissociation of the OCP^O dimer)", "setting": "[3]", "result": 1000, "unit": "s⁻¹"}
    ]},
    {"binder": "B2", "values": [
      {"measurement": "Kd", "setting": "[4]", "result": 0.5, "unit": "µM"},
      {"measurement": "stoichiometry N", "setting": "[4]", "result": 2},
      {"measurement": "stoichiometry N", "setting": "[5]", "result": 2}
    ]},
    {"binder": "B3", "values": [
      {"measurement": "Kd", "setting": "[6]", "result": 1.8, "unit": "µM"},
      {"measurement": "stoichiometry N", "setting": "[6]", "result": 2},
      {"measurement": "stoichiometry N", "setting": "[7]", "result": 2}
    ]},
    {"binder": "B4", "values": [
      {"measurement": "stoichiometry N", "setting": "[8]", "result": 2}
    ]}
  ]
}
